{
  "source": "paper PMC6506517",
  "about": "“Structure of Mycobacterium tuberculosis phosphatidylinositol phosphate synthase reveals mechanism of substrate binding and metal catalysis” (Communications Biology, 2019)",
  "proteins": {"B1": {"name": "Mycobacterium tuberculosis phosphatidylinositol phosphate synthase (PgsA1) (enzyme)", "chain": "MSKLPFLSRAAFARITTPIARGLLRVGLTPDVVTILGTTASVAGALTLFPMGKLFAGACVVWFFVLFDMLDGAMARERGGGTRFGAVLDATCDRISDGAVFCGLLWWIAFHMRDRPLVIATLICLVTSQVISYIKARAEASGLRGDGGFIERPERLIIVLTGAGVSDFPFVPWPPALSVGMWLLAVASVITCVQRLHTVWTSPGAIDRMAIPGKGDRENLYFQ", "notes": "also called M. tuberculosis PgsA1; Rv2612c"}},
  "molecular_target": "the molecule itself",
  "test": "crystal structure",
  "data": [
    {"protein": "B1", "values": [
      {"measurement": "binding result", "value": "binds"}
    ]}
  ]
}
